pKd: −log10 of the molar value.
The substances below were run against b-His6-BAK_(16-186) (UniProt Q16611) (assay: not given).
Sequence of UniProt Q16611 (Q16611 16-186): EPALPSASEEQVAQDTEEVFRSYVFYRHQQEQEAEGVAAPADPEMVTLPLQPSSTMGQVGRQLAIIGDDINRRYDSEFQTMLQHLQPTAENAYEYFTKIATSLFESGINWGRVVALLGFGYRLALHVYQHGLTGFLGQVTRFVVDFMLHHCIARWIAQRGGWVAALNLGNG

Row | Substance | pKd
1 | BNIP5 BH3 peptide, 5-FAM labelled | 6.37

Each substance was assayed against b-His6-BAK_(16-186) (UniProt Q16611) (assay: fluorescence polarisation).

Row | Substance | pKd
2 | BNIP5 BH3 peptide, 5-FAM labelled | 6.40
3 | CASP3 BH3 peptide, 5-FAM labelled | < 4.70
4 | NBEAL2 BH3 peptide, 5-FAM labelled | < 4.70
5 | PXT1 BH3 peptide, 5-FAM labelled | 4.96
6 | SLC19A1 BH3 peptide, 5-FAM labelled | < 4.70
7 | SPNS1 BH3 peptide, 5-FAM labelled | < 4.70
8 | TERT BH3 peptide, 5-FAM labelled | < 4.70
9 | TRIM58 BH3 peptide, 5-FAM labelled | < 4.70
10 | TRPM7 BH3 peptide, 5-FAM labelled | < 4.70

Each substance was assayed against b-His6-BAK_(16-186) (UniProt Q16611) (assay: BLI).

Row | Substance | koff
11 | His6-SUMO-BNIP5 BH3 (peptide) | 0.16 s⁻¹

From article doi:10.1101/2022.05.07.491048
